Test results: patent publication US20160031996A1 (CSL, published 2016)
Residue numbers refer to the chain shown, from its start.

T1: human IL-3Rα R84A, full length (human, UniProt P26951 19-378)
T1 construct: expressed in 293F cells; Western blot of whole cell extracts; also called R84, cell surface alanine
T1 sequence: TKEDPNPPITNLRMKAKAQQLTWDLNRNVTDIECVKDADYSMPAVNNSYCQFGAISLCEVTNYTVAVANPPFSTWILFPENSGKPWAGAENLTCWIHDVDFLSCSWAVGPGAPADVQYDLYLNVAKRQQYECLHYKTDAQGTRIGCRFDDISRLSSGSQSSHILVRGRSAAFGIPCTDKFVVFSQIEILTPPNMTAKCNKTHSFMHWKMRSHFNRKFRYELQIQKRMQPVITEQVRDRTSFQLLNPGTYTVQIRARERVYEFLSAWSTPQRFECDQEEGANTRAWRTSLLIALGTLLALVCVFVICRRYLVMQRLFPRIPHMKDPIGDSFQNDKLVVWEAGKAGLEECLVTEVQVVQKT

T2: human IL-3Rα P61A, full length (human, UniProt P26951 19-378)
T2 construct: expressed in 293F cells; Western blot of whole cell extracts; also called P61, cell surface alanine
T2 sequence: T1 sequence with P43A, A66R

T3: human IL-3Rα S59A/P88T double mutant, full length (human, UniProt P26951 19-378)
T3 chain: T1 sequence with S41A, A66R, P70T

T4: human IL-3Rα E51Q/S59A double mutant, full length (human, UniProt P26951 19-378)
T4 chain: T1 sequence with E33Q, S41A, A66R

T5: human IL-3Rα E51Q/S59A/P88T triple mutant, full length (human, UniProt P26951 19-378)
T5 chain: T1 sequence with E33Q, S41A, A66R, P70T

T6: human IL-3Rα E51Q/P88T double mutant, full length (human, UniProt P26951 19-378)
T6 chain: T1 sequence with E33Q, A66R, P70T

B1: monoclonal antibody 7G3 (antibody, V domains shown)
VH: EVQLQQSGPELVKPGASVKMSCKASGYTFTDYYMKWVKQSHGKSLEWIGDIIPSNGATFYNQKFKGKATLTVDRSSSTAYMHLNSLTSEDSAVYYCTRSHLLRASWFAYWGQGTLVTVSA
VL: DFVMTQSPSSLTVTAGEKVTMSCKSSQSLLNSGNQKNYLTWYLQKPGQPPKLLIYWASTRESGVPDRFTGSGSGTDFTLTISSVQAEDLAVYYCQNDYSYPYTFGGGTKLEIKR
notes: mouse monoclonal antibody (hybridoma ATCC HB-12009)
B2: antibody CSL362 (antibody, V domains shown)
VH: EVQLVQSGAEVKKPGESLKISCKGSGYSFTDYYMKWARQMPGKGLEWMGDIIPSNGATFYNQKFKGQVTISADKSISTTYLQWSSLKASDTAMYYCARSHLLRASWFAYWGQGTMVTVSS
VL: DIVMTQSPDSLAVSLGERATINCESSQSLLNSGNQKNYLTWYQQKPGQPPKPLIYWASTRESGVPDRFSGSGSGTDFTLTISSLQAEDVAVYYCQNDYSYPYTFGQGTKLEIKR

Tests used:
[1] = biological target: T1, human IL-3Rα R84A, full length; test: Western blot, whole cell extracts of 293F cells
[2] = biological target: T2, human IL-3Rα P61A, full length; test: Western blot, whole cell extracts of 293F cells
[3] = biological target: T3, human IL-3Rα S59A/P88T double mutant, …; test: flow cytometry, MFI normalised to WT
Procedure: (§1) Median fluorescence intensity (MFI) of each antibody was determined for WT IL-3Rα and for each IL-3Rα mutant. The MFI of WT IL-3Rα staining for each antibody was set as 100% then the MFI of each mutant was normalized to a percent of WT staining.

[4] = biological target: T4, human IL-3Rα E51Q/S59A double mutant, …; test: flow cytometry, MFI normalised to WT
Procedure: as §1

[5] = biological target: T5, human IL-3Rα E51Q/S59A/P88T triple …; test: flow cytometry, MFI normalised to WT
Procedure: as §1

[6] = biological target: T6, human IL-3Rα E51Q/P88T double mutant, …; test: flow cytometry, MFI normalised to WT
Procedure: as §1

Binder | binding result [1] | binding result [2] | MFI as percent of WT staining [3] | MFI as percent of WT staining [4] | MFI as percent of WT staining [5] | MFI as percent of WT staining [6]
B1 | no binding | no binding | 3 % of WT MFI | 1.4 % of WT MFI | 1 % of WT MFI | 1.4 % of WT MFI
B2 |  |  | 5 % of WT MFI | 2.4 % of WT MFI | 2.9 % of WT MFI | 2.5 % of WT MFI
